According to FireProtDB (doi:10.1021/bi00212a026):

B1: Ribonuclease, P00648 (parent)
chain: MMKMEGIALKKRLSWISVCLLVLVSAAGMLFSTAAKTETSSHKAHTEAQVINTFDGVADYLQTYHKLPDNYITKSEAQALGWVASKGNLADVAPGKSIGGDIFSNREGKLPGKSGRTWREADINYTSGFRNSDRILYSSDWLIYKTTDHYQTFTKIR

Variants of: B1
Settings: Bacillus amyloliquefaciens; pH 6.3; 25 °C; Urea; Fluorescence; MES 50 mM; NaCl 0.15 M; reversible: yes; structure 1BNI; whole UniProt chain shown

Row | Variant | ddG of mutation (higher = less stable) | denaturant m value | denaturant midpoint (higher = more stable) | unfolding free energy
1 | I51A Y125F | 2.53 kcal/mol | 1.95 kcal/mol/M | 3.21 M | 6.26 kcal/mol
2 | I51A I123V | 1.86 kcal/mol | 1.92 kcal/mol/M | 3.61 M | 6.93 kcal/mol
3 | I123T | 2.69 kcal/mol | 1.87 kcal/mol/M | 3.26 M | 6.1 kcal/mol
4 | I51A I98V | 2.63 kcal/mol | 2.11 kcal/mol/M | 2.92 M | 6.16 kcal/mol
